Stoichiometry N data for one substance are collected here from paper PMC5719442.

Experiment [1] addresses AnPrx6, Prx6 (1-Cys peroxiredoxin) from Anabaena sp. strain PCC 7120 (Anabaena sp. PCC 7120). Briefly: SAXS; 1.6 mg/ml and 4.8 mg/ml protein; mass from Hen Egg White Lysozyme standard and from Porod volume.
Experiment [2] has the same target. Briefly: SEC; analytical SEC at 0.1, 1 and 10 mg/ml protein, without or with 20 mM H2O2; BioRad Gel Filtration Standard.

Usually stoichiometry N stands for the number of molecules, sites or subunits per partner or assembly.

Turning to “AnPrx6, Prx6 (1-Cys peroxiredoxin) from Anabaena sp. strain PCC 7120 (enzyme)”, the stoichiometry N in experiment [1] and in experiment [2] was 2 each time.
